{
  "source": "the DeepSol protein solubility set",
  "data": [
    {"assay": "soluble on expression in E. coli; label from the status in PepcDB or PDB records", "values": [
      {"sequence": "MLSCVIPAHDEAALIGQTLQCLHACAQAMQLDYEAIVVADACSDDTAAIARANGASVIEVELRHIAATRNAGAQAAQGDRLLFLDADTQVNPQVMAAALAALDAGAVGGGARVHLHGKRVWVERMAQAVFGWIFRLSGIAPGCFLFCTRAAFASAGGFDTRYYAGEDVALSRSLARCGRFVILRQTVHTSDRKLRSFSKREHVGLLLRFLWRGRRMLQTRDALGFWYQRRRLEHHHHHH", "soluble on expression in E. coli": "not soluble"},
      {"sequence": "MLSEFLHNKSDAMVNQTHEFLLEMTGVSKEFPGVKALDKVNLKVRPHSVHALMGENGAGKSTLLKCLFGIYEKDEGDIIFLGQHVNFSSSKEALESGVSMVHQELNQVKQCSVMDNIWLGRYPTKGFFVDHDKMYRDTKAIFAELDIDIDPKVKVATLSVSQMQMLEIAKAFSYDAKVVIMDEPTSSLTEKEVNHLFTIIKKLKEKGCGVVYISHKMEEIFSICDEITILRDGQWVDTRPLKGLDMDKIISMMVGRELTQRFPEKSNEPKNVILEVKNLTALNQPSIQDISFELRAGEILGVAGLVGSRRTDIVETIFGVRERSAGHILLHGREMKNHDAHEAIRNGFALVTEERRSTGIYSNLDITFNSLVANVDEYKTPYGLLSDKKMKSDTQWVIDSMRVKTPSHQTHIGSLSGGNQQKVIIGRWLLTQPEILMLDEPTRGIDVGAKYEIYQLILELAKKDKGIIIISSEMPELLGITDRIMVMSNGRNAGIVNTKQTSQNEILELASRYL", "soluble on expression in E. coli": "not soluble"},
      {"sequence": "MLSGTRSRSSTKARKGTPRPPALSQSVYCGRRYTGPHTTFFFEITNDEYLLLSVLIFCNPALLQLSENGKLLLTIYRNLYCSALLQHCLLNNQKSGPARFTELLGVYQAIEVHYSDLANYIVLFQLNRPKVNQIVKNCFEAVT", "soluble on expression in E. coli": "not soluble"},
      {"sequence": "MLSKTNQNIFTVSRLNAEVRLLLENEMGIVWLVGEISNFSAPVSGHWYLTLKDSRAQVKCAMFRGNNRRVTFKPANGNQVLVKARLSLYEPRGDYQLIIESMQPEGDGRLQQEFEELKMKLAAEGLFAQTNKLPLPEHPKRVGIITSKTGAALYDILDVLKRRDPSLPVVIYPTMVQGDDAAIQIAQAIGRANSRNECDVLIVGRGGGSLEDLWCFNNEILARTIAASQIPIISAVGHEVDMTIADFVADVRAPTPSAAAELVSRDNSHKDQSLVAKQHKLASAMRYYLSQQKQQSAQLLHRLERQHPSYQLQRQSQQLDELDMRLRRAMQRFIDTRQQAVERKHHRLQLNSPVKHLAQQKSRLERVEHKLLDTMDRKLLTMRHQLAIAAEKLDTVSPLATLKRGYSITQTEQGKVVTSADDVKTGDLLVTRLANGEIHSTVS", "soluble on expression in E. coli": "not soluble"},
      {"sequence": "MLSQLPLFAGGEIVRGFGRGSKELGIPTANFPLEVVKSLPESLPTGAYYGWANVDNGPVHKMVLSIGWNPFYNNKEKSVETHMLHDFNCDLYGQTLKICIVGYLRPERSFDSLESLIAAIRGDIEQAKAFLDEADKAKLKEAPFFTEKLCSSKLEHHHHHH", "soluble on expression in E. coli": "not soluble"},
      {"sequence": "MLSSSPASCTSPSPGTDNPDKKVHWASEKRRRASSTDSESKTHLDISKLPRSRRPSRLTVKYDRGHLQRWLEMEQWVDAQVQELFQGQEESSEPEIDLEALMDLSTEDQRTQLEAILQDCPGNREPFISELLSQLKRLRRLSRPSK", "soluble on expression in E. coli": "soluble"},
      {"sequence": "MLSVMRMQIPKTHPRYESLMKREKIIEALDKGILAKAGLIAHGRGETFDYLIGEKTAPIALEAIKAAAALLILAENPVISVNGNTVALAIDEVVELAKELNGKIEVNLFYRTKERELAIKRAFEEKFKDDIETGKIKILGIDDANKQIPNLDSLRGKVSEEGIFTADVVLVPLEDGDRAEALVNMGKKVIAIDLNPLSRTARKSTITIVDELTRAMPLLIKYVKEFKNKDREELLKIVEDFDNKKNLKDMIDYIAERLKNLSLEHHHHHH", "soluble on expression in E. coli": "soluble"},
      {"sequence": "MLTACNGSRKGDANLSDNPLLQSSALFMEAPEFDKIKTEHFLPAFEAGMEQQLAEIDSIVNNSEAPTFENTLVAMERSGQTLKRVSNVFFGLTGANTNDELQKIEEKVSPLLAAHSDAIYLNDKLFQRVKAVYESDQSAIEPEGQKLIQEYYDAFVRAGANLSAEDKAKLMELNKEEASLTTEFGNKLIAATNAAAVIVGSKDSLDGLSETEIAKAASDAKAAGHEGKYLLNITNTTQQDYLSVLNDRTIRQRVLEASIHRTDKGDANDTQSIVLRLARLRAQKARLLGFPNYAAWKLQNQMANNPETVLAFVKSIATPYAPQAQKDAAELQAYARSKGFEGDLTAADWNYYADKLRKEKFGLDENEVKQYFVTDSVLKNGVFYAANKLYGLTFKERTDLPVYAEDVRVFDVIDQDGKQLALFYTDLYRRPTKSGGAWMSNWVDQSYLLNQKPVIYNVCNYAKGVDGQPSLINYDEVTTLFHEFGHALHGMFAAQQYPLLSGTNVARDFVEMPSQLNEHWAMDPEVFANYAKHWKTQEPMPAELVKKIQDASDFNQAYSMGENLAAVSLDQAWHTLTVEEAEAITDVAKFEEEALRKVGLYNPQIPPRYRSSYFRHIWSNGYASGYYAYLWTEVLDHNVYQWMVQNGGMTPQNGQRLRDMILSRGNTQDFNVIFTAFTGLQKPDIRDLLRARGLM", "soluble on expression in E. coli": "soluble"},
      {"sequence": "MLTDLEKNAIRDHYQNIGKNLPGFRPRASQREMIAAVANAFSRTLAREEGGEPPKREGESIAVIEGPTGVGKSLAYLLAGGIMAQTRGKRLIVSSATVALQEQLVDRDLPFLVEKSGLELTFALAKGRGRYLCPYKLYRLTQSNAQQNLLGFEAPAVLWDSKPKPEELKLLRDIADEFSARRFNGDRDTWPEKIDDAIWLKVTNDRHGCLKTACPNRPECPFYLARDVLETVDVVVANHDLLLADISMGGGVILPAPENSFYCIDEAHHLPKKALSRFAAEHSWNIAVWTLEKLPQLTGKIAALTDKAELANLADEAAASLLDSLHEWQFHLAEEPSLSLGVSENDRRTNSEPTWLWEDGKIPEGLETTVSNTAIAARSLLKHVIGLNDALSAARREKEQDGALLDRLTSEFGLFIARIEQISAVWDLLSTVPLEGEEPLAKWITRRADDKNDYIFNASPISSASHLANSLWRRAAGAVLTSATLQSLGNFNLMLRQTGLQWLPETTTLALKSPFDFEKQGELYIPPIYASPKDPEAHTAAVIEWLPKLISPTEAIGTLVLFSSRKQMQDVALRLPGDYLPLLLVQGELPKAVLLQKHHRAIEEGKASIIFGLDSFAEGLDLPGTACVQVIIAKLPFAMPDNPIEKTQNRWIEQRGGNPFIEITVPEAGIKLIQAVGRLIRTEQDYGRVTILDNRIKTQRYGQQLLAGLPPFKRIG", "soluble on expression in E. coli": "not soluble"},
      {"sequence": "MLTLITFPKAFGLYSASPFCVKAAYLLTLAGEPWQRQDQTDPRRMPHGKLPVLRTPERLVPDSDGIRAWLESRGAEFDRGLTDAQRASARALIHMAEDHFYPYLVLDRWGNDAVWAIIRDTFFGEIPRLLRKPVTNRIRAQVLRGLDFQGMARFSEAERRDRVERSFEAVTALLWQKPFLFGDAPTGADLSVAPMLAAMRATPVATPLQRRVAGDRVLSDYIDRMDATLPLT", "soluble on expression in E. coli": "not soluble"},
      {"sequence": "MLTRDFLQKADCRTSFGCIEETLLLTPQQRADSLDRMLALRPNSCPVWVFGYGSLMWNPVFDAEETCLATLTGWQRAFCLRLTIGRGTVTQPGRMLALQPGGQTTGLAFRLPKTSLREDLELLWKREMLTGCYRPLWCELHRKNGAPLTALVFVSEPEHPLNENDTCIQSVAPLIARASGPLGTNAQYLFALEQELKNHGTEDESVSELAQRVRTLQQSCPAPAGGGQLEHHHHHH", "soluble on expression in E. coli": "not soluble"},
      {"sequence": "MLTRVPVLILAVIVMLALCQEPEKPEKRPALLSRYGRAVLPRYGKRSGNLMESSQNSLTEESSDVVCQLIDGKYICLPVDAGFLGEVNGSIKQNSKTKCPAFFKNVSFSLFFRAFYLTVPACTSKKNVLLTSTTSTINHQKLEPATTLSPIRQRRRCLFQIDFAYLTVCPSKCQEGTDTGKVADYLLSLGCSDMDVIEREMKRVCCPE", "soluble on expression in E. coli": "not soluble"},
      {"sequence": "MLTYGAPFNFPRWIDEHAHLLKPPVGNRQVWQDSDFIVTVVGGPNHRTDYHDDPLEEFFYQLRGNAYLNLWVDGRRERADLKEGDIFLLPPHVRHSPQRPEAGSACLVIERQRPAGMLDGFEWYCDACGHLVHRVEVQLKSIVTDLPPLFESFYASEDKRRCPHCGQVHPGRAA", "soluble on expression in E. coli": "soluble"},
      {"sequence": "MLVDKTEFEAWMERIMGELYRISRKLDKAETREKHLNYLNGERLYDNQEVCLLLRISKRTLQRYRNNGVLKFYSIYHKTYYKESDLHEFIRNNFDENEIKRQAREDKLSESYPLPKE", "soluble on expression in E. coli": "not soluble"},
      {"sequence": "MLVNKVEICGVNTSKLPVLTNEQKKELFERMHKGDTSAREEFIKGNLRLVLSVIQRFNNRGEYVDDLFQVGCIGLIKAIDNFDVTQNVKFSTYAVPMIIGEIRRYLRDNNAIRVSRSLRDIAYKALQAKEKLTNQNSKEPTIEEIAKELGLPKEEVVFALDAIQDPISLFESVYHDGGDAIYVMDQVKDEKNNDENWLEGIALSEAMRKLNDREKLILNLRFFDGRTQMEVAEEIGISQAQVSRLEKTALMHMRKYI", "soluble on expression in E. coli": "not soluble"},
      {"sequence": "MLVVSIAGSPSVRSRSGVLLERARDWLSRRGVEVASHQVLDFPAEDLLRARLDSPPVLALAEQIGRADGLLVATPVYKASFSGALKVLLDLLPERALEHKVVLPFATGGSSAHMLAVDYALKPVLAALKAQEVLHGVFAVDKQIAYATESDPARLEPVLEQRLENALETFHLALSRRPQPIDPQLLNERLVNARWSI", "soluble on expression in E. coli": "soluble"},
      {"sequence": "MLYKGCLMKSDVQLNLRAKESQRALIDAAAEILHKSRTDFILETACQAAEKVILDRRVFNFNDEQYEEFINLLDAPVADDPVIEKLLARKPQWDV", "soluble on expression in E. coli": "not soluble"},
      {"sequence": "MLYPSKPNNEALRIQTLRELNVLDTSPEERFDRLTRLAKRLFNVPIALVSLVDADRQWFKSCVGLDVSETSRDISFCGHAILGDQILTVPDAGLDERFHDNPLVVGAPGIRFYAGCPLTVTNGSKLGTLCLIDIKPRDLDDEDRALLRDLARMAEQELAAVQMASMDELTLLSNRRGFEALARHALGVCKRLEKPATLLFFDLNDFKQINDTYGHAEGDGALKTFADVLRIAFRESDVIGRLGGDEFVALLTAADHVETSAIMARLREILDERNATLKRGYDIRFSVGQIEYDAERHPDIEALLADADKAMYLHKQASKRAR", "soluble on expression in E. coli": "not soluble"},
      {"sequence": "MMAKDFYSAIEDRRSIYAISKEQVVSDEKIQEVIYHAVKHTPSAFNSQSARVVVLLGEQHDKLWDITKETLRKIVPENNFAPTEEKMNAFKSGYGTVLYFEDSEVVESLQANFALYKDNFPTWSQQSSGMLQFAIWTALEIEGFGATLQHYNPLIDEEVRKEWDVPANWKLIAQMPFGKPVVQAGEKEFQPLENRVKIYKLEHHHHHH", "soluble on expression in E. coli": "soluble"},
      {"sequence": "MMDHAHDSCSPTLRRDLEVTGQLQPEKAVDLAAPHEGKVANITKVTSSNMEHTITQASKAKEVVVLIGHSLLPTFQDLEKDILHFQAGNKGRFSVAIVDPDRSADVVARFRPKQIPVAYVVKDGASIAEFNSLNKEPVAQWLDHFVSRETIPNEKEGDVDKQIDPRLWRAAELVNAGDFRAALALYEQLPQDATVKRAHAAVSVLARMSVADRGEDPIEKSRRDPDDVNKALAAADMYVLMNQPDTALAHLAALLPKPEAARRIVELLNLFDPLDLVALEIRAQVGNAMS", "soluble on expression in E. coli": "not soluble"},
      {"sequence": "MMDSCIRIAGIIGESIVDGPGIRLVVFAQGCPHHCPGCHNPETHAYEGGKSVAIAEILQRLAMNPLLDGITLSGGEPFAQAAGFALLAQSARQRGFHVMTYSGYTYEELTASSEQNPAWALLLEQTDLLVDGPFQLAERNLLLPFRGSENQRVIDVQESLRQGKVVLASVLEHHHHHH", "soluble on expression in E. coli": "not soluble"}
    ]}
  ]
}
